From patent US20180037651A1 (Janssen / Centocor, published 2018)

Experiments:
human GPRC5D [1] = target: T1, human GPRC5D (human, UniProt Q9NZD1 1-345); assay: FACS binding to plasma cells in MM patient MM303BM bone marrow MNCs
T1 construct: on transfected HEK293/RBL cells or endogenous on myeloma cells (H929, MM1R, OPM2, LP1, JIM3, patient plasma cells); also called G protein-coupled receptor class C group 5 member D; hGPRC5D

human GPRC5D [2] = target: T1, human GPRC5D; assay: FACS binding to plasma cells in MM patient MM305BM bone marrow MNCs
murine GPRC5D = target: T2, murine GPRC5D (murine, UniProt Q9JIL6 1-344); assay: FACS, murine GPRC5D
T2 construct: also called mouse GPRC5D
T2 sequence: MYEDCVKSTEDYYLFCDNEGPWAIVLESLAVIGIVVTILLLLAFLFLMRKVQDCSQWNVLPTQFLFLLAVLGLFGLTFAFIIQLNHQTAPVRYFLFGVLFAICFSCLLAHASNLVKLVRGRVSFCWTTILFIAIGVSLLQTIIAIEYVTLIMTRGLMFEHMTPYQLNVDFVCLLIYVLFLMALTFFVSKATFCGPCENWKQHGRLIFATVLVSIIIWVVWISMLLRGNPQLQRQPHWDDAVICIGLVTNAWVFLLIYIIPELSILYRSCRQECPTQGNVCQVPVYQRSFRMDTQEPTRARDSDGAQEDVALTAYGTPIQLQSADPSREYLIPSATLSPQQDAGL

human GPRC5D [3] = target: T1, human GPRC5D; assay: cell-based or functional assay
cyno GPRC5D [4] = target: T3, cyno GPRC5D (cyno, UniProt Q9NZD1 1-343 (human entry)); assay: cell-based or functional assay
T3 chain: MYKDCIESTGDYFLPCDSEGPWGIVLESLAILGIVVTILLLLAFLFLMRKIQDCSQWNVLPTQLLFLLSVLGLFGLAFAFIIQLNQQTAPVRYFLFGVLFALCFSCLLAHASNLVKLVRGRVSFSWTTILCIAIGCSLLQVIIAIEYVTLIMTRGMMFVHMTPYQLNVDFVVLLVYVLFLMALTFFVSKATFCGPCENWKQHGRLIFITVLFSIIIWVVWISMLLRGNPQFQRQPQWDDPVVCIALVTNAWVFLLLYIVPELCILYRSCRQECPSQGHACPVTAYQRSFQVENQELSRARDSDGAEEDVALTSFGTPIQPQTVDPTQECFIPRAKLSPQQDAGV

cyno GPRC5D [5] = target: T3, cyno GPRC5D; assay: cell-based or functional assay
human GPRC5D [6] = target: T1, human GPRC5D; assay: FACS, human GPRC5D HEK293F cells
cyno GPRC5D [7] = target: T3, cyno GPRC5D; assay: FACS, cyno GPRC5D cells, 1 ug/ml
Description: Whole cell phage panning was completed using the human GPRC5D cells as antigen, as described above. […] These mAbs were initially evaluated for binding to cyno GPRC5D using FACS. […] Briefly, FACS screening was performed by normalizing protein concentration to 1 ug/ml and 100 ul of protein was mixed with 200,000 cells per well. The mAb was allowed to incubate with cells for 1 hour at 4° C. The cells were then washed three times with PBS and 0.2% FBS. […] The cells and secondary antibody were incubated for 1 hour at 4° C. The cells were then washed three times with PBS and 0.2% FBS. The cells were washed again using PBS and 0.2% FBS and then analyzed on FACSarry.

cyno GPRC5D [8] = target: T3, cyno GPRC5D; assay: FACS, cyno GPRC5D HEK293F cells
human GPRC5D [9] = target: T1, human GPRC5D; assay: FACS, human GPRC5D cells

T1 sequence (Q9NZD1 whole entry): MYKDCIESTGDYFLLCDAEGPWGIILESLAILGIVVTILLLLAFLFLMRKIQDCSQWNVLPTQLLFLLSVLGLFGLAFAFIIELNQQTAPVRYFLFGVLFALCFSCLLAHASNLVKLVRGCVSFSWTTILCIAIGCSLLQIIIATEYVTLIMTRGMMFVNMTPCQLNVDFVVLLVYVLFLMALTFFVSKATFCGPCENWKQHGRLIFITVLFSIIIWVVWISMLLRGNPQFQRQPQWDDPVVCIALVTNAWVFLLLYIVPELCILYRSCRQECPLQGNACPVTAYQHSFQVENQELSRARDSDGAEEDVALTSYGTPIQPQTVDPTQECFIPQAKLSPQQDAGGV

B1: GCDB32 (bispecific antibody, human IgG4 S228P, lambda, F234A L235A)
heavy 1: not shown
VL: not shown
heavy 2: EVQLVESGGGLVQPGGSLRLSCAASGFTFNTYAMNWVRQAPGKGLEWVARIRSKYNNYATYYAASVKGRFTISRDDSKNSLYLQMNSLKTEDTAVYYCARHGNFGNSYVSWFAYWGQGTLVTVSSASTKGPSVFPLAPCSRSTSESTAALGCLVKDYFPEPVTVSWNSGALTSGVHTFPAVLQSSGLYSLSSVVTVPSSSLGTKTYTCNVDHKPSNTKVDKRVESKYGPPCPPCPAPEAAGGPSVFLFPPKPKDTLMISRTPEVTCVVVDVSQEDPEVQFNWYVDGVEVHNAKTKPREEQFNSTYRVVSVLTVLHQDWLNGKEYKCKVSNKGLPSSIEKTISKAKGQPREPQVYTLPPSQEEMTKNQVSLTCLVKGFYPSDIAVEWESNGQPENNYKTTPPVLDSDGSFLLYSKLTVDKSRWQEGNVFSCSVMHEALHNHYTQKSLSLSLGK
light: QTVVTQEPSLTVSPGGTVTLTCRSSTGAVTTSNYANWVQQKPGQAPRGLIGGTNKRAPGTPARFSGSLLGGKAALTLSGVQPEDEAEYYCALWYSNLWVFGGGTKLTVLGQPKAAPSVTLFPPSSEELQANKATLVCLISDFYPGAVTVAWKADSSPVKAGVETTTPSKQSNNKYAASSYLSLTPEQWKSHRSYSCQVTHEGSTVEKTVAPTECS
notes: IgG4-PAA by Fab arm exchange; also called GC5B81 x CD3B219; copies: 1 + 1 + 1 + 1
EC50 (human GPRC5D [1]): 16.1 nM | EC50 (human GPRC5D [2]): 70.4 nM | MFI (murine GPRC5D): 1150 MFI | T-cell redirection cytotoxicity EC50, human GPRC5D HEK cells (human GPRC5D [3]): 0.04 nM | T-cell redirection cytotoxicity EC50, cyno GPRC5D HEK cells (cyno GPRC5D [4]): 0.07 nM | T cell mediated target cell killing, Cyno GPRC5D EC50 (cyno GPRC5D [5]): 0.19 nM

B2: GCDB35 (bispecific antibody, IgG4)
heavy 1: not shown
VL: EIVLTQSPATLSLSPGERATLSCRASQSVSSYLAWYQQKPGQAPRLLIYDASNRATGIPARFSGSGSGTDFTLTISSLEPEDFAVYYCQQRSNWPLTFGQGTKVEIK
heavy 2: EVQLVESGGGLVQPGGSLRLSCAASGFTFNTYAMNWVRQAPGKGLEWVARIRSKYNNYATYYAASVKGRFTISRDDSKNSLYLQMNSLKTEDTAVYYCARHGNFGNSYVSWFAYWGQGTLVTVSSASTKGPSVFPLAPCSRSTSESTAALGCLVKDYFPEPVTVSWNSGALTSGVHTFPAVLQSSGLYSLSSVVTVPSSSLGTKTYTCNVDHKPSNTKVDKRVESKYGPPCPPCPAPEAAGGPSVFLFPPKPKDTLMISRTPEVTCVVVDVSQEDPEVQFNWYVDGVEVHNAKTKPREEQFNSTYRVVSVLTVLHQDWLNGKEYKCKVSNKGLPSSIEKTISKAKGQPREPQVYTLPPSQEEMTKNQVSLTCLVKGFYPSDIAVEWESNGQPENNYKTTPPVLDSDGSFLLYSKLTVDKSRWQEGNVFSCSVMHEALHNHYTQKSLSLSLGK
light: QTVVTQEPSLTVSPGGTVTLTCRSSTGAVTTSNYANWVQQKPGQAPRGLIGGTNKRAPGTPARFSGSLLGGKAALTLSGVQPEDEAEYYCALWYSNLWVFGGGTKLTVLGQPKAAPSVTLFPPSSEELQANKATLVCLISDFYPGAVTVAWKADSSPVKAGVETTTPSKQSNNKYAASSYLSLTPEQWKSHRSYSCQVTHEGSTVEKTVAPTECS
T cell mediated target cell killing, Cyno GPRC5D EC50 (cyno GPRC5D [5]): 4.65 nM

B3: GCDB53 (bispecific antibody, IgG4, V domains shown)
VH 1: not shown
VL 1: not shown
VH 2: EVQLVESGGGLVQPGGSLRLSCAASGFTFNTYAMNWVRQAPGKGLEWVARIRSKYNNYATYYAASVKGRFTISRDDSKNSLYLQMNSLKTEDTAVYYCARHGNFGNSYVSWFAYWGQGTLVTVSS
VL 2: QTVVTQEPSLTVSPGGTVTLTCRSSTGAVTTSNYANWVQQKPGQAPRGLIGGTNKRAPGTPARFSGSLLGGKAALTLSGVQPEDEAEYYCALWYSNLWVFGGGTKLTVL
notes: IgG4-PAA by Fab arm exchange; CD3 arm also F405L, R409K; also called GC5B465 x CD3B219
EC50 (human GPRC5D [1]): 3.98 nM | EC50 (human GPRC5D [2]): 10.2 nM | MFI (murine GPRC5D): 2660 MFI | T-cell redirection cytotoxicity EC50, human GPRC5D HEK cells (human GPRC5D [3]): 0.08 nM | T-cell redirection cytotoxicity EC50, cyno GPRC5D HEK cells (cyno GPRC5D [4]): 0.36 nM

B4: GCDB61 (bispecific antibody, IgG4, V domains shown)
VH 1: EVQLVQSGAEVKKPGESLKISCKGSGYSFTSYFIGWVRQMPGKGLEWMGIIYPGKSDTRYSPSFQGQVTISADKSISTAYLQWSSLKASDTAMYYCARVYSFGGRHKALFDYWGQGTLVTVSS
VL 1: EIVLTQSPATLSLSPGERATLSCRASQSVSSYLAWYQQKPGQAPRLLIYDASNRATGIPARFSGSGSGTDFTLTISSLEPEDFAVYYCQQRSNWPLTFGQGTKVEIK
VH 2: EVQLVESGGGLVQPGGSLRLSCAASGFTFNTYAMNWVRQAPGKGLEWVARIRSKYNNYATYYAASVKGRFTISRDDSKNSLYLQMNSLKTEDTAVYYCARHGNFGNSYVSWFAYWGQGTLVTVSS
VL 2: QTVVTQEPSLTVSPGGTVTLTCRSSTGAVTTSNYANWVQQKPGQAPRGLIGGTNKRAPGTPARFSGSLLGGKAALTLSGVQPEDEAEYYCALWYSNLWVFGGGTKLTVL
notes: IgG4-PAA by Fab arm exchange; CD3 arm also F405L, R409K; also called GC5B483 x CD3B219
EC50 (human GPRC5D [1]): 5.53 nM | EC50 (human GPRC5D [2]): 6.93 nM | MFI (murine GPRC5D): 3550 MFI | T-cell redirection cytotoxicity EC50, human GPRC5D HEK cells (human GPRC5D [3]): 0.03 nM | T-cell redirection cytotoxicity EC50, cyno GPRC5D HEK cells (cyno GPRC5D [4]): 1.22 nM

B5: GCDB72 (bispecific antibody, IgG4, V domains shown)
VH 1: QVQLVQSGAEVKKPGASVKVSCKASGYSFTGYTMNWVRQAPGQGLEWMGLINPYNSDTNYAQKLQGRVTMTTDTSTSTAYMELRSLRSDDTAVYYCARVALRVALDYWGQGTLVTVSS
VL 1: DIQMTQSPSSLSASVGDRVTITCKASQNVATHVGWYQQKPGKAPKRLIYSASYRYSGVPSRFSGSGSGTEFTLTISNLQPEDFATYYCQQYNRYPYTFGQGTKLEIK
VH 2: EVQLVESGGGLVQPGGSLRLSCAASGFTFNTYAMNWVRQAPGKGLEWVARIRSKYNNYATYYAASVKGRFTISRDDSKNSLYLQMNSLKTEDTAVYYCARHGNFGNSYVSWFAYWGQGTLVTVSS
VL 2: QTVVTQEPSLTVSPGGTVTLTCRSSTGAVTTSNYANWVQQKPGQAPRGLIGGTNKRAPGTPARFSGSLLGGKAALTLSGVQPEDEAEYYCALWYSNLWVFGGGTKLTVL
notes: IgG4-PAA by Fab arm exchange; CD3 arm also F405L, R409K; also called GC5B596 x CD3B219
MFI (murine GPRC5D): 481 MFI | T-cell redirection cytotoxicity EC50, cyno GPRC5D HEK cells (cyno GPRC5D [4]): 3.41 nM

B6: GC5B332 (antibody, IgG1, V domains shown)
VH: EVQLVQSGAEVKKPGESLKISCKGSGYSFTSYWIGWVRQMPGKGLEWMGIIYPGDSDTRYSPSFQGQVTISADKSISTAYLQWSSLKASDTAMYYCARIGFYGRSFRIFDYWGQGTLVTVSS
VL: EIVLTQSPATLSLSPGERATLSCRASQSVSSYLAWYQQKPGQAPRLLIYDASNRATGIPARFSGSGSGTDFTLTISSLEPEDFAVYYCQQRSNWPLTFGQGTKVEIK
notes: GC5H35+PH9L3 (L6); human IgG4PAA
MFI (human GPRC5D [6]): 13300 MFI | MFI (cyno GPRC5D [7]): 192000 MFI | MFI (cyno GPRC5D [8]): 107000 MFI

B7: GC5B590 (antibody, V domains shown)
VH: QVTLKESGPVLVKPTETLTLTCTVSGFSLTSYNVHWIRQPPGKALEWLAVIWAGGSTNYNSALKSRLTISKDTSKSQVVLTMTNMRAEDTATYYCARDGIRLRFAYWGQGTLVTVSS
VL: EIVMTQSPATLSVSPGERATLSCKASQNVATHVGWYQQKPGQAPRLLIYSASYRYSGIPARFSGSGSGTEFTLTISSLQSEDFAVYYCQQYNRYPYTFGQGTKLEIK
notes: GC5B540 PTM variant
binding result (human GPRC5D [9]): binds

B8: GC5B592 (antibody, V domains shown)
VH: QVTLKESGPVLVKPTETLTLTCTVSGFSLTSYNVHWIRQPPGKALEWLAVIWAGGSTNYNSALMSRLTISKDTSKSQVVLTMTNMRAEDTATYYCARDAIRLRFAYWGQGTLVTVSS
VL: EIVMTQSPATLSVSPGERATLSCKASQNVATHVGWYQQKPGQAPRLLIYSASYRYSGIPARFSGSGSGTEFTLTISSLQSEDFAVYYCQQYNRYPYTFGQGTKLEIK
notes: GC5B540 PTM variant
binding result (human GPRC5D [9]): binds

B9: GC5B594 (antibody, V domains shown)
VH: QVTLKESGPVLVKPTETLTLTCTVSGFSLTSYNVHWIRQPPGKALEWLAVIWAGGSTNYNSALKSRLTISKDTSKSQVVLTMTNMRAEDTATYYCARDAIRLRFAYWGQGTLVTVSS
VL: EIVMTQSPATLSVSPGERATLSCKASQNVATHVGWYQQKPGQAPRLLIYSASYRYSGIPARFSGSGSGTEFTLTISSLQSEDFAVYYCQQYNRYPYTFGQGTKLEIK
notes: GC5B540 PTM variant
binding result (human GPRC5D [9]): binds
